# Data published in patent US5763240.
# Target: RecA (UniProt P0A7G6)
# Settings: FITC-avidin confocal microscopy, permeabilized HEp-2 nuclei in agarose, 37 C; no signal without recA or with BSA
# Chain of RecA (P0A7G6 2-353): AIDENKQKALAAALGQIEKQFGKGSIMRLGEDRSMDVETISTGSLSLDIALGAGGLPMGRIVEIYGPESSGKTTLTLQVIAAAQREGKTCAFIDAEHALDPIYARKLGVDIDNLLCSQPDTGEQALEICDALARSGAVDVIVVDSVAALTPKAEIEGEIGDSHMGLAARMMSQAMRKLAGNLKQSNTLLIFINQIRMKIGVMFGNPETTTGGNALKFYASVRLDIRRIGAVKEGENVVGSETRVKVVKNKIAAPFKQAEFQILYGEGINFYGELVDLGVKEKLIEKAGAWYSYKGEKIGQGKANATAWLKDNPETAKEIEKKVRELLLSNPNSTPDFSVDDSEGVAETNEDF
substance,measurement,value
"human chromosome 1 alpha-satellite targeting polynucleotides (nick-translated pUC 1.77, denatured)",binding (% nuclei with signal),> 25
